Molecular target: recombinant TdfH (Neisseria gonorrhoeae TonB-dependent transporter, NGO0952) (Neisseria gonorrhoeae)
Test: ITC; Nano ITC, 25°C, 1x PBS with 0.05% DDM; TdfH (300 μl, 20 μM) in the cell, CP sample (200 μM) in 20 injections of 2.5 μl; fitted with NanoAnalyze to a two-state (multisite) model, TKO to a single-site model

B1: human calprotectin (heterodimer of S100A8 and S100A9) (complex)
chain 1: MLTELEKALNSIIDVYHKYSLIKGNFHAVYRDDLKKLLETECPQYIRKKGADVWFKELDINTDGAVNFQEFLILVIKMGVAAHKKSHEESHKE
chain 2: KMSQLERNIETIINTFHQYSVKLGHPDTLNQGEFKELVRKDLQNFLKKENKNEKVIEHIMEDLDTNADKQLSFEEFIMLMARLTWASHEKMHEGDEGPGHHHKPGLGEGTP
Q: What does the source list for B1?
A: KD, high-affinity interaction (two-state model): 0.004 µM; KD, low-affinity interaction (two-state model): 35 µM

— PMC7251212
